According to publication PMC6778148:

Target: fluorescein-labelled divalent stargazin-derived peptide ligand
Experiment: fluorescence polarisation; direct titration: 50 nM fluorescein-labelled stargazin ligand (divalent or monovalent) against increasing concentrations of PDZ domains; apparent KD

B1: SAP102 tandem PDZ domains 1 and 2 (SAP102-12), from pET-NO (domain or fragment)
chain: FKYEEIVLERGNSGLGFSIAGGIDNPHVPDDPGIFITKIIPGGAAAMDGRLGVNDCVLRVNEVDVSEVVHSRAVEALKEAGPVVRLVVRRRQPPPETIMEVNLLKGPKGLGFSIAGGIGNQHIPGDNSIYITKIIEGGAAQKDGRLQIGDRLLAVNNTNLQDVRHEEAVASLKNTSDMVYLKVAKPGSL
Kd: 175 nM
